These results are taken from article PMC12923268, “JAZ2/JAZ4-MYC2.1 module mediates MeJA-induced alleviation of chilling injury in peach fruit (Prunus persica)”.

The chains are these.
B1: PpERF61 mut (dsDNA)
DNA 1: ACAAGTTGAGAAAAAATACCCAATTGCT
DNA 2: AGCAATTGGGTATTTTTTCTCAACTTGT
B2: PpIAA1 mut (dsDNA)
DNA 1: AGTAGTTGGAAAAAATTATAAATAATA
DNA 2: TATTATTTATAATTTTTTCCAACTACT
B3: Pp4CL probe (dsDNA)
DNA 1: GCATGGGACACACGTGTTCAAATACTTGTATGA
DNA 2: TCATACAAGTATTTGAACACGTGTGTCCCATGC
B4: PpHB.G7 probe (dsDNA)
DNA 1: GTGGCGTGAGAACACGTGTGGCCGTTACGC
DNA 2: GCGTAACGGCCACACGTGTTCTCACGCCAC
B5: PpXTH2 probe (dsDNA)
DNA 1: TGAGGCGCACATGGAACAAAATTAG
DNA 2: CTAATTTTGTTCCATGTGCGCCTCA
B6: PpPL1 probe (dsDNA)
DNA 1: CACACACTCACATGTTGCTAAATT
DNA 2: AATTTAGCAACATGTGAGTGTGTG
B7: PpERF61 probe (dsDNA)
DNA 1: ACAAGTTGAGCATGTGTACCCAATTGCT
DNA 2: AGCAATTGGGTACACATGCTCAACTTGT
B8: PpPG2 probe (dsDNA)
DNA 1: GACAACAATTCCACATGTCCTATGTTTATTG
DNA 2: CAATAAACATAGGACATGTGGAATTGTTGTC
B9: PpCHI3 probe (PpCHI) (dsDNA)
DNA 1: CATCTACCCACGTGTTCAACAATTCAA
DNA 2: TTGAATTGTTGAACACGTGGGTAGATG
B10: PpPAL1 probe (dsDNA)
DNA 1: GGCAACCACATGGATGAATTGTTAT
DNA 2: ATAACAATTCATCCATGTGGTTGCC
B11: PpCHS probe (dsDNA)
DNA 1: AGAAAACCACGTGGGACAAAACCCTAGA
DNA 2: TCTAGGGTTTTGTCCCACGTGGTTTTCT
B12: PpIAA1 probe (dsDNA)
DNA 1: AGTAGTTGGCACGTGTTATAAATAATA
DNA 2: TATTATTTATAACACGTGCCAACTACT
B13: PpHB.G7 mut (dsDNA)
DNA 1: GTGGCGTGAGAAAAAAAATGGCCGTTACGC
DNA 2: GCGTAACGGCCATTTTTTTTCTCACGCCAC

In one series the target is T1, PpMYC2.1 (Prunus persica, UniProt A0A251P353 1-687). Nature of the series: competition; mutant competitor vs N1; failed to compete effectively; Chemiluminescent EMSA Kit (Beyotime); buffer, salt, pH and temperature not stated. The settings on record: protein: recombinant; tags: His, SUMO (pET-SUMO); chain copies: 2; blunt. For orientation: A gel shift assay detects complexes by their altered migration in electrophoresis.
T1 sequence (A0A251P353 entry or part of it): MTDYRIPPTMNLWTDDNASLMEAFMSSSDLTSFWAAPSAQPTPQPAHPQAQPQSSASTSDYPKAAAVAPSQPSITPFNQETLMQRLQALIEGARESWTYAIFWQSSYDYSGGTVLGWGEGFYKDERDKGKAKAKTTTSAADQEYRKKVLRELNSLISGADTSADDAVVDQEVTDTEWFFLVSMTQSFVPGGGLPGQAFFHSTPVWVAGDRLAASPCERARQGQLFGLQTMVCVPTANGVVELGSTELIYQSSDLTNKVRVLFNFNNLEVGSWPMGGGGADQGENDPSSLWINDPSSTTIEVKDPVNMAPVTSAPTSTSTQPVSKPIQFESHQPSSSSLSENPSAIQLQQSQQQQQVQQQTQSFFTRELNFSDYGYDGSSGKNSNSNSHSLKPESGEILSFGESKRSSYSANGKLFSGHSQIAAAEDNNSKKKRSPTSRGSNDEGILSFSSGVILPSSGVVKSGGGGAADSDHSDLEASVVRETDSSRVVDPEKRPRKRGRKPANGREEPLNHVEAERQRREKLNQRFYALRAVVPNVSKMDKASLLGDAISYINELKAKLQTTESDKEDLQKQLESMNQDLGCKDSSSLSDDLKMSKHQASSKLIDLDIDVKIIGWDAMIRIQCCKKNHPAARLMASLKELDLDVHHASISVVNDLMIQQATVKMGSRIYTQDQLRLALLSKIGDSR
Regarding B1, the binding result is reported as “no binding”.

A further series addresses T1, PpMYC2.1. In words: competition; mutant competitor vs N5; failed to compete effectively; Chemiluminescent EMSA Kit (Beyotime); buffer, salt, pH and temperature not stated. The settings on record: protein: recombinant; tags: His, SUMO (pET-SUMO); chain copies: 2; blunt.
In the case of B2, the binding result was “no binding”.

In the next series the target is T1, PpMYC2.1. In words: EMSA; Chemiluminescent EMSA Kit (Beyotime); buffer, salt, pH and temperature not stated. The settings on record: protein: recombinant; tags: His, SUMO (pET-SUMO); chain copies: 2; label: 3' biotin; blunt.
Turning to B3, the binding result is reported as “binds”.

For B4, the binding result is recorded as “binds”.

In the case of B5, the binding result was “binds”.

B6: the binding result was “binds”.

Consider B7, for which the binding result is “binds”.

For B8, the binding result was “binds”.

With B9, the binding result is listed as “binds”.

As to B10, the binding result was “binds”.

In the case of B11, the binding result was “binds”.

Turning to B12, the binding result is recorded as “binds”.

Another series concerns the target T1, PpMYC2.1. Nature of the series: competition; mutant competitor vs N3; failed to compete effectively; Chemiluminescent EMSA Kit (Beyotime); buffer, salt, pH and temperature not stated. The settings on record: protein: recombinant; tags: His, SUMO (pET-SUMO); chain copies: 2; blunt.
For B13, the binding result is given as “no binding”.
